# B1: IFNγ: pleiotropic cytokine produced by T- and NK-cells; obtained from Peprotech (protein, UniProt P01579 24-161, looked up)
# Interferon gamma: QDPYVKEAENLKKYFNAGHSDVADNGTLFLGILKNWKEESDRKIMQSQIVSFYFKLFKNFKDDQSIQKSVETIKEDMNVKFFNSNKKKRDDFEKLTNYSVTDLNVQRKAIHELIQVMAELSPAAKTGKRKRSQMLFRG
# Experiment: Phase I study of topical interferon gamma-1b in CME secondary to uveitis (OCT macular thickness)
# Type: in vivo, human
# Conditions: based on therapeutic treatment of topical IFNα
# Excerpt: To test whether cystoid macular edema (CME), secondary to uveitis, is caused by the disequilibrium of the Jak/Stat and mTor signal transduction pathways in the retinal pigment epithelium (RPE), interferon gamma-1β topically applied in human patients. Five participants with CME secondary to uveitis receive a topical ocular instillation of interferon gamma-1b in a Phase I, non-randomized, prospective, uncontrolled, dose-escalation, single-center study. The study involves a one-time instillation or series of instillations of interferon gamma-1b on the cornea and measurement of a response with optical coherence tomography (OCT) over a three hour period.
# A 25% decrease in macular thickness is observed at a post-instillation as compared to baseline. In the study, the first two participants receive one instillation (each instillation contains […] in 0.05 mL solution) on the cornea at time zero, the next two participants receive two instillations, 10 minutes apart, for a total dosage of 20 μg, and the final participant receives three instillations, 10 minutes apart, for a total of 30 μg. OCT will be obtained at −60 minutes, −30 minutes and just before the instillation(s). […]
# Participants with CME secondary to uveitis are treated with ocular instillation(s) of interferon gamma-1b. […] The effect on the retinal thickness is measured using OCT measurements as indicated below. […]
molecule,measurement,value
B1,tolerability of topically applied IFNγ,well-tolerated

# — US9486502B2, “Methods of administering interferon gamma to absorb fluid from the subretinal space” (The United States of America, as represented by the …, priority 2008, dated 2016)
